B1: Eaf1 (natural protein)
chain: MSSRPSSAVPNSASLSEDQSSDRSKFPKADDLIDERDRKLTELYCVSRLNQLLELTDENKLRKEIDAFLKKNDIRRGIRFDEASLPKLLHTAATPITKKKLKDVNLINVPNQRLSDSKMSRELPENSENVSVKSESHFVPSHDNSIRENMMDSLRPAEKTGGMWNKRPLESTMGGEEERHEKRQKMQSQSLESSNNSEMASLPISPRPPVPNALAHYTYYENIEYPPADPTEVQPAVKFKDPLIKNIMAKEIDTSDHYNENNVDALETVFLLMNDYIPSKIPQALPLAELKYMSQTLPLINLIPRAHKALTTNIINNALNEARITVVGSRIEELRRLGLWSLRQPKRFIDPWKQHNTHQNILLEEAKWMQADFKEGHKYKVAICTAMAQAIKDYWTYGEICCVKRKTLLPGKENKLSDDGRISEKSGRPSDTSRNDSDISIAGKDDIGIIANVDDITEKESAAANDNDENGKNEAGAKSDFDFADGLLSQEGAHDQIISSIDTKLLLKKPSSSSEVVLIQHEVAASSALIETEESKKELAPPFKLSIFVDELNTFEKTLIQDLPLYNGINEERPKKDDSLPFIPISKSVVSLDDNGFYKLLERQLIDEEPSISQLSKRRGMFYGNRRNHYLRPPAVPSLRYLQNRTPTIWLSEDDQELVKNINTYGYNWELISAHMTHRLTYSYLSNIERRTPWQCFERFVQLNERFNFSDLKGPRAHSAQQWLIEAHKFQQRQNRRISPLGVNTESIQRGHRRLRWASMFEAIRKCMKKRENTPRPNPTQPRKPLDCKNMKVPTPAEMSLLKAQRDEALRRDIQLRRTVKNRLQQRQQQSQQAHSSRAQSPIPSNGKSSSNLARNGQASAPRPNQKQYTEQDIIESYSRKLLEQKPDIGPEMALKAAKNYYRTLREQQQQLKQHQIQQQRQQLQEESSHVQQLQQLQPGSQAPPPKSSPSQSSLSNISNINSAPRIKSPTPQEILQRFQKQ
B2: Epl1 with a TAP tag fused to the C-terminus (natural protein)
chain: MPTPSNAIEINDGSHKSGRSTRRSGSRSAHDDGLDSFSKGDSGAGASAGSSNSRFRHRKISVKQHLKIYLPNDLKHLDKDELQQREVVEIETGVEKNEEKEVHLHRILQMGSGHTKHKDYIPTPDASMTWNEYDKFYTGSFQETTSYIKFSATVEDCCGTNYNMDERDETFLNEQVNKGSSDILTEDEFEILCSSFEHAIHERQPFLSMDPESILSFEELKPTLIKSDMADFNLRNQLNHEINSHKTHFITQFDPVSQMNTRPLIQLIEKFGSKIYDYWRERKIEVNGYEIFPQLKFERPGEKEEIDPYVCFRRREVRHPRKTRRIDILNSQRLRALHQELKNAKDLALLVAKRENVSLNWINDELKIFDQRVKIKNLKRSLNISGEDDDLINHKRKRPTIVTVEQREAELRKAELKRAAAAAAAAKAKNNKRNNQLEDKSSRLTKQQQQQLLQQQQQQQQNALKTENGKQLANASSSSTSQPITSHVYVKLPSSKIPDIVLEDVDALLNSKEKNARKFVQEKMEKRKIEDADVFFNLTDDPFNPVFDMSLPKNFSTSNVPFASIASSKFQIDRSFYSSHLPEYLKGISDDIRIYDSNGRSRNKDNYNLDTKRIKKTELYDPFQENLEIHSREYPIKFRKRVGRSNIKYVDRMPNFTTSSTKSACSLMDFVDFDSIEKEQYSREGSNDTDSINVYDSKYDEFVRLYDKWKYDSPQNEYGIKFSDEPARLNQISNDTQVIRFGTMLGTKSYEQLREATIKYRRDYITRLKQKHIQHLQQQQQQQQQQQQQAQQQKQKSQNNNSNSSNSLKKLNDSLINSEAKQNSSITQKNSS
B3: Eaf2/Swc4 (natural protein)
chain: MSSSDIFDVLNIKQKSRSPTNGQVSVPSSSAANRPKPQVTGMQRELFNLLGENQPPVVIKSGNNFKEKMLSTSKPSPWSFVEFKANNSVTLRHWVKGSKELIGDTPKESPYSKFNQHLSIPSFTKEEYEAFMNENEGTQKSVESEKNHNENFTNEKKDESKNSWSFEEIEYLFNLCKKYDLRWFLIFDRYSYNNSRTLEDLKEKFYYTCRNYFKASDPSNPLLSSLNFSAEKEIERKKYLQRLLSRSAAEIAEEEALVVESKKFEMAAKRTLAERESLLRLLDSPHSDQTITQYLTSQGMSQLYNALLADKTRKRKHDLNIPENPWMKQQQQFAQHRQLQQLNVKKSEVKENLSPKKTKRQRQEMQTALKRKSESAYAEQLLKDFNSDERKALGVITHGEKLSPGVYLRSTKLSTFKPALQNKILAILQELSLPSRPVMPSFDVMERQEELLKKINTLIDLKKHVDKYEAGMSITK

In one assay the target is Tra1 (S. cerevisiae, UniProt P38811 1-3744). In words: cryo-EM structure.
Assay [1] deals with B1. As to the kind of experiment: affinity purification with mass spectrometry.
The target of assay [2] is B1. As to the kind of experiment: cryo-EM structure.

Tra1, sequence (P38811 whole entry): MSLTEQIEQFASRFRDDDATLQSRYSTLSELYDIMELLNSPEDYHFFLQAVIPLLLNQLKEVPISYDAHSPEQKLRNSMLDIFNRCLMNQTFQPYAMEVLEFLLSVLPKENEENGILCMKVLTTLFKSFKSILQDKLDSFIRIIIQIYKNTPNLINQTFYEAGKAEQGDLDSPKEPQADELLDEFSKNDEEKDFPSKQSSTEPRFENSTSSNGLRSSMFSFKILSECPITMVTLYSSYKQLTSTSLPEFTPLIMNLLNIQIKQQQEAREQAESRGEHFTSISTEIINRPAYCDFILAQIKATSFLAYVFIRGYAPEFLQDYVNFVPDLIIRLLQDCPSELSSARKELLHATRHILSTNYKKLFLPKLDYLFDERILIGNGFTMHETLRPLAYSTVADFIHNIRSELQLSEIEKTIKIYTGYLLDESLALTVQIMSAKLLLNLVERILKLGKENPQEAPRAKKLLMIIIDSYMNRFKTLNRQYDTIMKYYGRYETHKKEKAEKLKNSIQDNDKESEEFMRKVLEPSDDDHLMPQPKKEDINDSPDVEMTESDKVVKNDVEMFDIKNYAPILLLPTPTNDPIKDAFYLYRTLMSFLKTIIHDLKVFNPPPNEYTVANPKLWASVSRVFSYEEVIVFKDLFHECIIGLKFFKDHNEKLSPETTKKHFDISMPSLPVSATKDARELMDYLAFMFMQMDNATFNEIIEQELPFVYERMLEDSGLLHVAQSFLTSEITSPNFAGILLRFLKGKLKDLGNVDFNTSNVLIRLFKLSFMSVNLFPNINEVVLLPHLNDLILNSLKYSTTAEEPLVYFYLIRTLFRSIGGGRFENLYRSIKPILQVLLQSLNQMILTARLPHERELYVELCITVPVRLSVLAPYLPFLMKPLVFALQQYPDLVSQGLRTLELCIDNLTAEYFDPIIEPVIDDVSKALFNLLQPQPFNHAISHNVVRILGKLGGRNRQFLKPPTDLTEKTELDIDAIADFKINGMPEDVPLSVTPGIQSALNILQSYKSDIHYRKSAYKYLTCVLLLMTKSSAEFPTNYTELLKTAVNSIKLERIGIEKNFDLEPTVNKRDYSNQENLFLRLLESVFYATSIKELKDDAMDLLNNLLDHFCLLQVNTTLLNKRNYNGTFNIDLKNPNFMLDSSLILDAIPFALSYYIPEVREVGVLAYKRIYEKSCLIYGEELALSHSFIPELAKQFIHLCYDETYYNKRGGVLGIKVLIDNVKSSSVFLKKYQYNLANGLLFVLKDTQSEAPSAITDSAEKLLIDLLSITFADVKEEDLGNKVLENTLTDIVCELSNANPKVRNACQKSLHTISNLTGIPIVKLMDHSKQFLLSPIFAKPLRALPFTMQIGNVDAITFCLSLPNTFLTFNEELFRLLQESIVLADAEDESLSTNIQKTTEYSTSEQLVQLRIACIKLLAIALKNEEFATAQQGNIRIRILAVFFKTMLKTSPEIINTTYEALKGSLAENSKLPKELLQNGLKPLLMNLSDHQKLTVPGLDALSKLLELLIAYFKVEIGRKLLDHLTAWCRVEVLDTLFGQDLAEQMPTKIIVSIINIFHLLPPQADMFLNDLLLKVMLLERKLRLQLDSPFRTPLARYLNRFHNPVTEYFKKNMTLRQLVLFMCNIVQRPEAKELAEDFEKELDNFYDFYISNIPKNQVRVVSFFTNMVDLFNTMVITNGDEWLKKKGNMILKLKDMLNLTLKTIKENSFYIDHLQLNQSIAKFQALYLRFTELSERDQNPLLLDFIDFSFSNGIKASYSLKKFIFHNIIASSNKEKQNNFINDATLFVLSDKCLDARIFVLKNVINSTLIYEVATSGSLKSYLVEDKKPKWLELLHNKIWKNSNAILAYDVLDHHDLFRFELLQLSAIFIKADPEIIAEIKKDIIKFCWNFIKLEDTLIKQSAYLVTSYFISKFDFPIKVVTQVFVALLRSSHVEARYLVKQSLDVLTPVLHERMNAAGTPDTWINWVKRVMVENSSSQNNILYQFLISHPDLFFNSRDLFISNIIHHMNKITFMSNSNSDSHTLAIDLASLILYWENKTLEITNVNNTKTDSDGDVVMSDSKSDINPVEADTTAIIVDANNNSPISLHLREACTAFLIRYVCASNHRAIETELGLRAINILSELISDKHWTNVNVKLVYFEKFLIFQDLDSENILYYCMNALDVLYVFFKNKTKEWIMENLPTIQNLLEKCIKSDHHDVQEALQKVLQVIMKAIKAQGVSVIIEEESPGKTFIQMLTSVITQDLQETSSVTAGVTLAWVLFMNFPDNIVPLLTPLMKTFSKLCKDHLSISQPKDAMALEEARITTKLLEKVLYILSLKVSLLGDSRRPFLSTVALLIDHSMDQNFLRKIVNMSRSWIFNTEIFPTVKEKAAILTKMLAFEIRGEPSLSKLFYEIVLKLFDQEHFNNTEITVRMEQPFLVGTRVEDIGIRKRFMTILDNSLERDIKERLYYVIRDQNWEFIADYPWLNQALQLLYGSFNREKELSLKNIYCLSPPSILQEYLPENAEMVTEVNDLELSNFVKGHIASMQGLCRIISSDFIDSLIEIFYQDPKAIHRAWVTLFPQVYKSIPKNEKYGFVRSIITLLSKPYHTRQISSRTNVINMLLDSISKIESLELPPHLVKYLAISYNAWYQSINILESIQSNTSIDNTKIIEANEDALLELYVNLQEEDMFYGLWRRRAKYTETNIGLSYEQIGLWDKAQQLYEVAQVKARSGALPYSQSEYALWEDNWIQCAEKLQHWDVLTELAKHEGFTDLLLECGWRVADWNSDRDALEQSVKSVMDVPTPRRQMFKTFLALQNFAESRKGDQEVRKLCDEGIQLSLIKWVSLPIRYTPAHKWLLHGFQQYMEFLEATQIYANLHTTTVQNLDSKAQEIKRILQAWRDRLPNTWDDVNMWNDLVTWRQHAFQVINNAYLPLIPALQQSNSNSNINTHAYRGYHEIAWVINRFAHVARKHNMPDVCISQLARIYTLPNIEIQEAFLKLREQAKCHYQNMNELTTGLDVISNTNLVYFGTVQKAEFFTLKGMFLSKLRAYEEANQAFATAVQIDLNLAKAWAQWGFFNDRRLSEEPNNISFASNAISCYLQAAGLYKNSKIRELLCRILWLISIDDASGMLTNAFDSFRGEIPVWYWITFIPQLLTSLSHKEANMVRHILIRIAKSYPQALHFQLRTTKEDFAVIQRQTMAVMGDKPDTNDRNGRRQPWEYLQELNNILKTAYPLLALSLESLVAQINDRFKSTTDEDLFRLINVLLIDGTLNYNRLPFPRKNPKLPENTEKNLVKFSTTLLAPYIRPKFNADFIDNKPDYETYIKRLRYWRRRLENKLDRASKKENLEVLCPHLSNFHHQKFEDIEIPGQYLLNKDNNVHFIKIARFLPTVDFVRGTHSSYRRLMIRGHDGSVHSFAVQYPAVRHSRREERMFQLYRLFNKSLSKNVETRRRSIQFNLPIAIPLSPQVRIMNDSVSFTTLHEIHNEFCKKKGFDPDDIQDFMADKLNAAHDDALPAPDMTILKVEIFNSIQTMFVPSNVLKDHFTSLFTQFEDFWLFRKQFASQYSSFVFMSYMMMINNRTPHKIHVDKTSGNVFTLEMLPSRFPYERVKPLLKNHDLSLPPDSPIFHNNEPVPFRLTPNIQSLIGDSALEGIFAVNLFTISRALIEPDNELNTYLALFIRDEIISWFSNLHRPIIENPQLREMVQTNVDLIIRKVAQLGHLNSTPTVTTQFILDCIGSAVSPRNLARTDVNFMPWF

On to B1, for which, in the assay with Tra1, the binding result is “binds”. For B2, the binding result with Eaf1 [1] was “binds”. For the molecule B3, the binding result with Eaf1 [2] and in the assay with Tra1 was “binds” in each case.

For the origin of these results see article doi:10.1101/2022.07.11.499577 (bioRxiv, 2022).
